Assay results as given in US20220396612A1 (UNIVERSIT DE TOURS, published 2022).

B1: monoclonal antibody ‘18A2’ derived from hybridoma 18A2 (antibody, V domains shown)
VH: DVQLQESGPGLVKPSQSLSLTCSVTGYSITSGYYWNWIRQFPGNKLEWMGYISYDGSNNYNPSLKNRISITRDTSKNQFFLKLNSVTTEDTATYYCARWEGTTDYWGQGTTLTVSS
VL: not shown
notes: Mouse hybridoma antibody
B2: monoclonal antibody ‘H6’ secreted by clone BK6A2H6 (antibody, V domains shown)
VH: EVQLQQSGPELVKPGASVKISCKASGYSFTGYFMNWVKQSHGKSLEWIGRINPYNGDTFYNQKFKGKATLTVDKSSSTAHMELLSLTSEDSAVYYCGSYYYGDYFDYWGQGTTLTVSS
VL: SIVMTQIPKFLLVSEGDRVTITCKASQSVSNDVAWYQQKSGQSPKLLIYYASNRYTGVPDRFTGSGYGTDFTFTISTVQAEDLAVYFCQQDYSSPLTFGAGTKLELKR
B3: monoclonal antibody ‘F6’ secreted by clone BK6A2F6 (antibody)
heavy: EVQLQQSGPELVKPGASVKISCKASGYSFTGYFMNWVKQSHGKSLEWIGRINPYNGDTFYNQKFKGKATLTVDKSSSTAHMELLSLTSEDSAVYYCGSYYYGDYFDYWGQGTTLTVSSAKTTPPSVYPLAPGSAAQTNSMVTLGCLVKGYFPEPVTVTWNSGSLSSGVHTFPAVLQSDLYTLSSSVTVPSSTWPSETVTCNVAHPASSTKVDKKIVPRDCGCKPCICTVPEVSSVFIFPPKPKDVLTITLTPKVTCVVVDISKDDPEVQFSWFVDDVEVHTAQTQPREEQFNSTFRSVSELPIMHQDWLNGKEFKCRVNSAAFPAPIEKTISKTKGRPKAPQVYTIPPPKEQMAKDKVSLTCMITDFFPEDITVEWQWNGQPAENYKNTQPIMDTDGSYFVYSKLNVQKSNWEAGNTFTCSVLHEGLHNHHTEKSLSHSPGK
light: […]

Legend:
[1] = target: T1, denatured VLPs of BK polyomavirus VP-1 protein, serotype IV (BK virus (BKPyV), serotype IV, UniProt P14996 1-362); assay: ELISA on denatured VLP (carbonate pH 10.6 + DTT; threshold OD>0.5)
T1 construct: also called IV denatured
T1 chain: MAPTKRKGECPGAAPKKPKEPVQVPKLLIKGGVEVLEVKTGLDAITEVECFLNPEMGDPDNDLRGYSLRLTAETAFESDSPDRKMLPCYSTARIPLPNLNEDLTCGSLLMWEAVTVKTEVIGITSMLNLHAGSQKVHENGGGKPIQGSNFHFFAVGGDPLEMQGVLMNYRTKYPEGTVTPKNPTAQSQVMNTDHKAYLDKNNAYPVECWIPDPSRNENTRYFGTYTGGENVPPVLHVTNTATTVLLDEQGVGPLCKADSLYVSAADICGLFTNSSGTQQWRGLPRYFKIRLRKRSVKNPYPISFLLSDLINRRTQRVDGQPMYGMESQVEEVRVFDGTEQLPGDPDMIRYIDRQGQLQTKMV
Protocol: The wells were then blocked for 1 hour at +37° C. with a PBS/SVF mixture. After dilution in a dilution buffer containing SVF, PBS and Tween® 20, the individual culture supernatants or purified antibodies were added for 1 hour at +37° C. The wells were washed four times in a row with Wash Buffer and a secondary anti-mouse peroxidase antibody was added to the 1/2000 dilution for 1 hour at +37° C. The wells were washed again four times in a row and the substrate was added for 30 minutes at room temperature. A stop solution was added and then each well was read by measuring the absorbance at 492 nm with a spectrophotometer. The value obtained for the average of the control wells (PBS in the first step) was subtracted from the optical density values obtained for each well (detection threshold: OD>0.5).

[2] = target: T2, virus-like particles (VLPs) of BK polyomavirus VP-1 protein, serotype II (BK virus (BKPyV), serotype II, UniProt P14996 1-362); assay: ELISA on coated VLP; supernatant 1/20 480
T2 construct: native VLPs; also called VLP II
T2 chain: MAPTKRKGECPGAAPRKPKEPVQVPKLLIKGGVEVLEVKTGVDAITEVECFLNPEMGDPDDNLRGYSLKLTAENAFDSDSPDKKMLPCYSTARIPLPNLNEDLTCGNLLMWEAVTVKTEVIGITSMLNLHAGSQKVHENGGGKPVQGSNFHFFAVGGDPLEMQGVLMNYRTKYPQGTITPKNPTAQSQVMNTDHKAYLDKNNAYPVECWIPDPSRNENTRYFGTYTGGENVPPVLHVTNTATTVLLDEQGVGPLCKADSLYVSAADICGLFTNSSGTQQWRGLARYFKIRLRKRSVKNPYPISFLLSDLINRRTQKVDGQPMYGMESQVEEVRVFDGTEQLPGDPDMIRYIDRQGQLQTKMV
Protocol: (§1) To do this, the VLPs produced were deposited at a concentration of 1 μg/mL in PBS and incubated overnight at +4° C. The wells were then blocked for 1 h at +37° C. with a PBS/FCS (phosphate-buffered saline/fetal calf serum) mixture. After dilution in a dilution buffer containing FCS, PBS and Tween® 20, the various hybridoma culture supernatants were added for 1 h at +37° C. The wells were washed four times in a row with Wash Buffer and a secondary anti-mouse antibody coupled to peroxidase was added to the 1:2000 dilution for 1 h at +37° C. The wells were washed four more times and the substrate (OPD (ortho phenylene diamine)+H₂O₂) was added for 30 min at room temperature. A stop solution (H₂SO₄ 4N) was then added and each well was read by measuring the absorbance at 492 nm with a spectrophotometer. The value obtained for the average of the control wells (PBS in the first step) is subtracted from the optical density values obtained for each well.

[3] = target: T3, virus-like particles (VLPs) of BK polyomavirus VP-1 protein, serotype Ib2 (BK virus (BKPyV), serotype Ib2, PA …, UniProt P03088 1-362); assay: ELISA on coated VLP; supernatant 1/20 480
T3 construct: native VLPs; also the immunogen; also called VLP Ib2; BK Ib2
T3 chain: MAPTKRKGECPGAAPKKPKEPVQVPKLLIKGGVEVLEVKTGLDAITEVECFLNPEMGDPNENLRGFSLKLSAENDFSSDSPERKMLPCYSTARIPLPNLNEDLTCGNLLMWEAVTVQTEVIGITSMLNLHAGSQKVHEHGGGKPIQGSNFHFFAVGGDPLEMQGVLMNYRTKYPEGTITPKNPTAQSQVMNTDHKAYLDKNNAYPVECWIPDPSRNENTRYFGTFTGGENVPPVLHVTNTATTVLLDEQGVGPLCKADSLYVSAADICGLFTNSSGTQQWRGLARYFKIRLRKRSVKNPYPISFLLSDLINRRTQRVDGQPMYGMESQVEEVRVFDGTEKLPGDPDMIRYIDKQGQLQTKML
Protocol: as §1

[4] = target: T4, virus-like particles (VLPs) of BK polyomavirus VP-1 protein, serotype Ia (BK virus (BKPyV), serotype Ia, UniProt P03088 1-361); assay: ELISA on coated VLP; supernatant 1/20 480
T4 construct: self-assembled native VLPs coated on ELISA plates; also called VLP Ia; BKV VP-1, serotype Ia
T4 chain: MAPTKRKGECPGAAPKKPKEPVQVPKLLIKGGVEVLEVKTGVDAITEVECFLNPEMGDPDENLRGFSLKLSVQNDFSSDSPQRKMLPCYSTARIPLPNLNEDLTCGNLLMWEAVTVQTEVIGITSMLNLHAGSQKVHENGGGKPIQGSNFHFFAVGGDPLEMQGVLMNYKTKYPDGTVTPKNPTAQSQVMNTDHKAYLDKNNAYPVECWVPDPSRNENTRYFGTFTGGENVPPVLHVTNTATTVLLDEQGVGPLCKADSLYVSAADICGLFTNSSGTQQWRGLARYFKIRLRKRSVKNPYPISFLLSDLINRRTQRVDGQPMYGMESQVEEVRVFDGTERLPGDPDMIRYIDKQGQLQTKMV
Protocol: as §1

[5] = target: T2, virus-like particles (VLPs) of BK …; assay: ELISA on coated VLP; supernatant 1/2 560
Protocol: as §1

[6] = target: T3, virus-like particles (VLPs) of BK …; assay: ELISA on coated VLP; supernatant 1/2 560
Protocol: as §1

[7] = target: T4, virus-like particles (VLPs) of BK …; assay: ELISA on coated VLP; supernatant 1/2 560
Protocol: as §1

[8] = target: T5, virus-like particles (VLPs) of BK polyomavirus VP-1 protein, serotype IV (BK virus (BKPyV), serotype IV, UniProt P14996 1-362); assay: ELISA on coated VLP; supernatant 1/2 560
T5 construct: native VLPs; also called VLP IV
T5 chain: T1 chain
Protocol: as §1

[9] = target: T2, virus-like particles (VLPs) of BK …; assay: ELISA on coated VLP; supernatant 1/10 240
Protocol: as §1

[10] = target: T3, virus-like particles (VLPs) of BK …; assay: ELISA on coated VLP; supernatant 1/10 240
Protocol: as §1

[11] = target: T4, virus-like particles (VLPs) of BK …; assay: ELISA on coated VLP; supernatant 1/10 240
Protocol: as §1

[12] = target: T5, virus-like particles (VLPs) of BK …; assay: ELISA on coated VLP; supernatant 1/10 240
Protocol: as §1

| Binder | OD 492 nm [1] [OD] | OD 492 nm [2] [OD] | OD 492 nm [3] [OD] | OD 492 nm [4] [OD] | OD 492 nm [5] [OD] | OD 492 nm [6] [OD] | OD 492 nm [7] [OD] | OD 492 nm [8] [OD] | OD 492 nm [9] [OD] | OD 492 nm [10] [OD] | OD 492 nm [11] [OD] | OD 492 nm [12] [OD] |
| --- | --- | --- | --- | --- | --- | --- | --- | --- | --- | --- | --- | --- |
| B1 | 0.709 | – | – | – | – | – | – | – | – | – | – | – |
| B2 | – | 0.06 | 0.06 | 0.16 | 0.06 | 0.1 | 0.46 | 0.54 | 0.06 | 0.06 | 0.22 | 0.17 |
| B3 | – | 0.1 | 0.11 | 0.27 | 0.07 | 0.09 | 1.06 | 1.28 | 0.08 | 0.08 | 0.19 | 0.48 |
